Results: paper PMC9482650, “Quantitative fragmentomics allow affinity mapping of interactomes” (Nature Communications, 2022)

T1: ARHGAP21, Q5T5U3
T1 sequence (Q5T5U3 45-169, limits assumed, looked up): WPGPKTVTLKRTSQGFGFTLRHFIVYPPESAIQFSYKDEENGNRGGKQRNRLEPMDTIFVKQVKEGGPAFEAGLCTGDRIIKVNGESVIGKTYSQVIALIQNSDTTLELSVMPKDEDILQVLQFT

T2: CARD11, Q9BXL7
T2 sequence (Q9BXL7 662-765, limits assumed, looked up): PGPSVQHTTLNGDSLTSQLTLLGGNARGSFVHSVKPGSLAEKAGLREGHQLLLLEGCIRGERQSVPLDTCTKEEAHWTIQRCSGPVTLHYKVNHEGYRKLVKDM

T3: MPP6, Q9NZW5
T3 sequence (Q9NZW5 125-219, limits assumed, looked up): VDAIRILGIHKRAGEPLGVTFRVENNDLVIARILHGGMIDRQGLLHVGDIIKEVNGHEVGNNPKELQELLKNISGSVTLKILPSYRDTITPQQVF

T4: RADIL, Q96JH8
T4 sequence (Q96JH8 971-1071, limits assumed, looked up): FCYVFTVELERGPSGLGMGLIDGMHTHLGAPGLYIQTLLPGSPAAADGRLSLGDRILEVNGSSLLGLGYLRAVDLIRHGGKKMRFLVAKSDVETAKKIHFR

T5: PTPN13_1, Q12923
T5 sequence (Q12923 1088-1188, limits assumed, looked up): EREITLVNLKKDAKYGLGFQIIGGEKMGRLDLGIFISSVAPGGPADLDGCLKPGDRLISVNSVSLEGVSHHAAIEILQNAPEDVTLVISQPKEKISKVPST

T6: MPDZ_5, O75970
T6 sequence (O75970 695-796, limits assumed, looked up): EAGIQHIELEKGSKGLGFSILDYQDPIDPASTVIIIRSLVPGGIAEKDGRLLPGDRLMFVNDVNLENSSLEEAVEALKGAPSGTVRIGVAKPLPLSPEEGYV

T7: RAPGEF6, Q8TEU7
T7 sequence (Q8TEU7 525-625, limits assumed, looked up): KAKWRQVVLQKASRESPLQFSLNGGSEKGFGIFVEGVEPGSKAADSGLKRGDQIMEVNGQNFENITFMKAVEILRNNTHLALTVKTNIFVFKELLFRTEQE

T8: MPDZ_10, O75970
T8 sequence (O75970 1624-1722, limits assumed, looked up): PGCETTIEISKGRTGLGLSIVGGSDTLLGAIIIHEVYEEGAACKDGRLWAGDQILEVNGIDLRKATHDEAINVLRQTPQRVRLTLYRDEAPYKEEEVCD

T9: DVL3, Q92997
T9 sequence (Q92997 244-331, limits assumed, looked up): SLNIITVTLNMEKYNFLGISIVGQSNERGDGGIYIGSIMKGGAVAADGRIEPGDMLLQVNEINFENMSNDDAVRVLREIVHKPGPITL

T10: ARHGEF11, O15085
T10 sequence (O15085 42-136, limits assumed, looked up): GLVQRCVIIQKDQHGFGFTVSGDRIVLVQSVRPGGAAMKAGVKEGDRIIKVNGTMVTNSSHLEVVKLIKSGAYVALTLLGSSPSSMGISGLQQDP

T11: LIN7C, Q9NUP9
T11 sequence (Q9NUP9 88-185, limits assumed, looked up): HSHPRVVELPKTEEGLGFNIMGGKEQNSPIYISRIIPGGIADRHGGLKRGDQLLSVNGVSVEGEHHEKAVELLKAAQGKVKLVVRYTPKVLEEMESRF

T12: SIPA1L2, Q9P2F8
T12 sequence (Q9P2F8 945-1036, limits assumed, looked up): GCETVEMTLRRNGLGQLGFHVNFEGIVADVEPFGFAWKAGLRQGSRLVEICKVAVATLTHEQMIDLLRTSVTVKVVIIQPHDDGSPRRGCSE


Tests used:
Test in all cases: holdup assay
Design in all cases: key: below the threshold = too weak to quantify, mostly under pKd 3.1 to 4
Details in all cases: plain residues with an end cap or a label only (N-terminal biotin on a linker: ttds)
GRIP2_5, Q9C0E4 = molecular target: GRIP2_5, Q9C0E4
PDLIM1, O00151 = molecular target: PDLIM1, O00151
ARHGAP21, Q5T5U3 = molecular target: T1, ARHGAP21, Q5T5U3
CARD11, Q9BXL7 = molecular target: T2, CARD11, Q9BXL7
MAGI1_2, Q96QZ7 = molecular target: MAGI1_2, Q96QZ7
IL16_4, Q14005 = molecular target: IL16_4, Q14005
MPP6, Q9NZW5 = molecular target: T3, MPP6, Q9NZW5
RADIL, Q96JH8 = molecular target: T4, RADIL, Q96JH8
TJP1_3, Q07157 = molecular target: TJP1_3, Q07157
PTPN13_1, Q12923 = molecular target: T5, PTPN13_1, Q12923
MPDZ_5, O75970 = molecular target: T6, MPDZ_5, O75970
RAPGEF6, Q8TEU7 = molecular target: T7, RAPGEF6, Q8TEU7
HTRA2, O43464 = molecular target: HTRA2, O43464
NHERF4_4, Q86UT5 = molecular target: NHERF4_4, Q86UT5
GIPC2, Q8TF65 = molecular target: GIPC2, Q8TF65
MPDZ_10, O75970 = molecular target: T8, MPDZ_10, O75970
DVL3, Q92997 = molecular target: T9, DVL3, Q92997
Inadl_3, Q8NI35 = molecular target: Inadl_3, Q8NI35
ARHGEF12, Q9NZN5-2 = molecular target: ARHGEF12, Q9NZN5-2
ARHGEF11, O15085 = molecular target: T10, ARHGEF11, O15085
LIN7C, Q9NUP9 = molecular target: T11, LIN7C, Q9NUP9
PTPN3, P26045 = molecular target: PTPN3, P26045
SIPA1L2, Q9P2F8 = molecular target: T12, SIPA1L2, Q9P2F8
Inadl_2, Q8NI35 = molecular target: Inadl_2, Q8NI35
Inadl_6, Q8NI35 = molecular target: Inadl_6, Q8NI35
Sequence of Inadl_6, Q8NI35 (Q8NI35 1058-1167): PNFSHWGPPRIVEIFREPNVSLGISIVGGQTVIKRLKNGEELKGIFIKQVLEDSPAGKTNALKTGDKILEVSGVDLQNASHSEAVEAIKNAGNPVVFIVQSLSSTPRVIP

Sequence of PTPN3, P26045 (P26045 505-587): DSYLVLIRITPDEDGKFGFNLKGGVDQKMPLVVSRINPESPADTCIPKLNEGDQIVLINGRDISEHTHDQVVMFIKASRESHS
Sequence of ARHGEF12, Q9NZN5-2 (Q9NZN5 other isoform, or with tags, fused parts or gaps): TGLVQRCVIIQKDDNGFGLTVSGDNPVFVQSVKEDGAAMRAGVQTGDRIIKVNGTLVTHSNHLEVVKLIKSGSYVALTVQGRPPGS
Sequence of GIPC2, Q8TF65 (Q8TF65 112-203): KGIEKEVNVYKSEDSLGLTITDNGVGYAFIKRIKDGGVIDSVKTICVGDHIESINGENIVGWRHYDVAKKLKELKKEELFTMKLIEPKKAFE
Sequence of Inadl_3, Q8NI35 (Q8NI35 359-469): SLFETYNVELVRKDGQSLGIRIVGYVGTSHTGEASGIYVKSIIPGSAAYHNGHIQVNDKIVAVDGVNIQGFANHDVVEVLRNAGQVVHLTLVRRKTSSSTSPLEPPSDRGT
Sequence of Inadl_2, Q8NI35 (Q8NI35 238-335): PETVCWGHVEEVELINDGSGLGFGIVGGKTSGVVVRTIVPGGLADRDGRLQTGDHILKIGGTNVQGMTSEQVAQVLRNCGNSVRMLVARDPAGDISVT
Sequence of IL16_4, Q14005 (Q14005 1229-1329): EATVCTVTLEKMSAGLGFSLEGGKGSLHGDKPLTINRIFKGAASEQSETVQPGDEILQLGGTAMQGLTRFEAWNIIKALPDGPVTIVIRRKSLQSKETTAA
Sequence of MAGI1_2, Q96QZ7 (Q96QZ7 456-580): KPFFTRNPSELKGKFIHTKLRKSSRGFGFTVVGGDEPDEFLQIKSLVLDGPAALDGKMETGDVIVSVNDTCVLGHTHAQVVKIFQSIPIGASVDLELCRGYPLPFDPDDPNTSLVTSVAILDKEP
Sequence of NHERF4_4, Q86UT5 (Q86UT5 464-550): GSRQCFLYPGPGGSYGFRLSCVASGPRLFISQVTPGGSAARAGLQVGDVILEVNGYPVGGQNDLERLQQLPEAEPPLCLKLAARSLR
Sequence of PDLIM1, O00151 (O00151 1-87): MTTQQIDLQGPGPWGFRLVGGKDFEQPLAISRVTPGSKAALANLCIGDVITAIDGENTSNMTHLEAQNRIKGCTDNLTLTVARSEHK
Sequence of HTRA2, O43464 (O43464 355-458): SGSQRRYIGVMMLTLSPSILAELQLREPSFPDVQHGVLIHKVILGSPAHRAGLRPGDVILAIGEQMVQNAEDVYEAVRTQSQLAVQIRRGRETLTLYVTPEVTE
Sequence of TJP1_3, Q07157 (Q07157 416-512): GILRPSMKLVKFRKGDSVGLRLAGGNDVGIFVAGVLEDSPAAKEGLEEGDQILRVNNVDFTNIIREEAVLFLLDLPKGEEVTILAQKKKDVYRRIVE
Sequence of GRIP2_5, Q9C0E4 (Q9C0E4 544-642): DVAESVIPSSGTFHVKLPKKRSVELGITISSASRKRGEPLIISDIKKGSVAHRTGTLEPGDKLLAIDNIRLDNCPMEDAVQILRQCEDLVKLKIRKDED

pKd (GRIP2_5, Q9C0E4) | pKd (PDLIM1, O00151) | pKd (ARHGAP21, Q5T5U3) | pKd (CARD11, Q9BXL7) | pKd (MAGI1_2, Q96QZ7) | pKd (IL16_4, Q14005) | pKd (MPP6, Q9NZW5) | pKd (RADIL, Q96JH8) | pKd (TJP1_3, Q07157) | pKd (PTPN13_1, Q12923) | pKd (MPDZ_5, O75970) | pKd (RAPGEF6, Q8TEU7) | pKd (HTRA2, O43464) | pKd (NHERF4_4, Q86UT5) | pKd (GIPC2, Q8TF65) | pKd (MPDZ_10, O75970) | pKd (DVL3, Q92997) | pKd (Inadl_3, Q8NI35) | pKd (ARHGEF12, Q9NZN5-2) | pKd (ARHGEF11, O15085) | Binder | also measured
below the threshold | 3.49 | below the threshold | below the threshold | 4.3 | below the threshold | 3.73 | 3.54 | below the threshold | below the threshold | 3.61 | 3.7 | below the threshold | 3.49 | below the threshold | 3.76 | below the threshold | below the threshold | 5.45 | 4.44 | RRVRKLPSTTL [RPS6KA1, Q15418] | pKd (LIN7C, Q9NUP9): below the threshold; pKd (PTPN3, P26045): 3.93; pKd (SIPA1L2, Q9P2F8): below the threshold; pKd (Inadl_2, Q8NI35): below the threshold; pKd (Inadl_6, Q8NI35): below the threshold
below the threshold | 3.73 | 3.94 | below the threshold | 4.15 | below the threshold | 3.74 | below the threshold | below the threshold | below the threshold | below the threshold | below the threshold | below the threshold | below the threshold | below the threshold | below the threshold | below the threshold | below the threshold | 4.94 | 4.53 | NYWPGKETQL [SLCO1C1, Q9NYB5] | pKd (LIN7C, Q9NUP9): 4.93; pKd (PTPN3, P26045): 5.42; pKd (SIPA1L2, Q9P2F8): below the threshold; pKd (Inadl_2, Q8NI35): below the threshold; pKd (Inadl_6, Q8NI35): 4.61
below the threshold | below the threshold | below the threshold | below the threshold | below the threshold | below the threshold | below the threshold | below the threshold | below the threshold | below the threshold | below the threshold | below the threshold | below the threshold | below the threshold | below the threshold | below the threshold | below the threshold | below the threshold | 3.52 | below the threshold | TEEEVQDTRL [CFTR, P13569] | pKd (LIN7C, Q9NUP9): below the threshold; pKd (PTPN3, P26045): 4.21; pKd (SIPA1L2, Q9P2F8): below the threshold; pKd (Inadl_2, Q8NI35): below the threshold; pKd (Inadl_6, Q8NI35): below the threshold
